What was measured:
[1] = target: T1, Methylglyoxal-modified human serum albumin (HSA-MG) (Homo sapiens, UniProt P02768); assay: ELISA (Scatchard plot)
[2] = target: T1, Methylglyoxal-modified human serum …; assay: peroxidase activity inhibition (ABTS varied)
[3] = target: T1, Methylglyoxal-modified human serum …; assay: peroxidase activity inhibition (ABTS, H2O2 varied)
[4] = target: T1, Methylglyoxal-modified human serum …; assay: chlorinating activity inhibition (celestine blue B, NaCl varied)
[5] = target: T1, Methylglyoxal-modified human serum …; assay: chlorinating activity inhibition (celestine blue B, H2O2 varied)

Kd [1]: 1.5 nM
Ki [2]: 1080 nM
Ki [3]: 840 nM
Ki [4]: 940 nM
Ki [5]: 800 nM
B1: Myeloperoxidase (protein)
chain: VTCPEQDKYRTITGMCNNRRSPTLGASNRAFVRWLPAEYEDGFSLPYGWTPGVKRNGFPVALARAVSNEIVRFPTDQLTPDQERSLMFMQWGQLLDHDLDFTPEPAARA
modifications: methylglyoxal-modified HSA

Source: paper PMC9686918 (2022)
